According to the supplement of paper PMC11136658:

Test system: peptide library, one residue held at a place counted from the Y acceptor
Test: relative phosphorylation of the sub-library (ratio to the mean residue at this position); higher = residue favoured
Procedure, shortened: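 Within 384-well plates, purified recombinant kinases phosphorylated biotinylated Tyr-centred peptide library mixtures over 90 min using 50 μM ATP spiked with γ-32P-ATP; each mixture fixed one residue at one position from −5 to +5. Streptavidin membrane capture, rinsing, phosphorimaging and ImageQuant gave the intensities. These were normalized per position to the sum of the 18 randomized residues (16 for the Ser/Thr-free library) and multiplied by that number.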

Chain of BMPR2, construct: aa172-end, human (Q13873 172-1038, looked up): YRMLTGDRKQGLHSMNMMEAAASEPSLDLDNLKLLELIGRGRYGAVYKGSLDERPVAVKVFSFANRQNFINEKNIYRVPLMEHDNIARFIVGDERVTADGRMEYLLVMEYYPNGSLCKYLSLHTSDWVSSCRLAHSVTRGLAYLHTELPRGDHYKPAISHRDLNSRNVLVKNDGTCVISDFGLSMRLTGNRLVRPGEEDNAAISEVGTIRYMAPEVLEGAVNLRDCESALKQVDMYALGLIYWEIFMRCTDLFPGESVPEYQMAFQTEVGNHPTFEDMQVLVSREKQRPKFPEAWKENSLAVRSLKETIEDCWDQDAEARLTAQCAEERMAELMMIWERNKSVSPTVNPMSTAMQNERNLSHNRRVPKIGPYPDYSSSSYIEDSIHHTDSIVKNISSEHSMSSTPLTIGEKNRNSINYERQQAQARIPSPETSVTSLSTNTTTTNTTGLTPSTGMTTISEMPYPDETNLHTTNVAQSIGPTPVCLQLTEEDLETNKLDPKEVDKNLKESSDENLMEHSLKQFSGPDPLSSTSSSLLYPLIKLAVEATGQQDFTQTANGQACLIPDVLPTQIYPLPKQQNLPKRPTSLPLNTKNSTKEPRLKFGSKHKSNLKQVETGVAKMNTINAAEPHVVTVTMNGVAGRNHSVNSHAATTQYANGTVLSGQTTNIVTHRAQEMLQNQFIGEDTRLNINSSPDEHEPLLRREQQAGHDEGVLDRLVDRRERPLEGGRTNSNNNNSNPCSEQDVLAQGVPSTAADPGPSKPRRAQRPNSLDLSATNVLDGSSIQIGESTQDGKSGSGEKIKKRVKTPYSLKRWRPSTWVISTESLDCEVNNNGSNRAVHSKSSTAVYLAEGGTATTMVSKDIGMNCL
Chain of ALK, construct: aa1058-end, human (Q9UM73 1058-1620, looked up): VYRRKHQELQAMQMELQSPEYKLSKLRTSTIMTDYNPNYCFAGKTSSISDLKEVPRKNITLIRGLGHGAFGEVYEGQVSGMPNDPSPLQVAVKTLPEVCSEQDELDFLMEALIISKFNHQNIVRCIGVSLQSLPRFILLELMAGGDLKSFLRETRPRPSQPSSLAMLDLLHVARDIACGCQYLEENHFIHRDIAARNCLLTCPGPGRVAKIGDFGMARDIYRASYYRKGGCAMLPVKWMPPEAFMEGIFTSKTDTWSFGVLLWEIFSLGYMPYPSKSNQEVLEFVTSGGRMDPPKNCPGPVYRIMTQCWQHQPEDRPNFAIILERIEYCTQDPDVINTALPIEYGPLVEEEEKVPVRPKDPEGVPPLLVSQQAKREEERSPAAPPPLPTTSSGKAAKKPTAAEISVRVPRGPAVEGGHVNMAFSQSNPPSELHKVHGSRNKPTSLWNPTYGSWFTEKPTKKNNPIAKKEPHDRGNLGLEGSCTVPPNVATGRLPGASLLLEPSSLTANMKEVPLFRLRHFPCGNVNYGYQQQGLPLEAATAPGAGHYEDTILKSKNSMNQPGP
Chain of AXL, construct: aa473-end, human (P30530 473-894, looked up): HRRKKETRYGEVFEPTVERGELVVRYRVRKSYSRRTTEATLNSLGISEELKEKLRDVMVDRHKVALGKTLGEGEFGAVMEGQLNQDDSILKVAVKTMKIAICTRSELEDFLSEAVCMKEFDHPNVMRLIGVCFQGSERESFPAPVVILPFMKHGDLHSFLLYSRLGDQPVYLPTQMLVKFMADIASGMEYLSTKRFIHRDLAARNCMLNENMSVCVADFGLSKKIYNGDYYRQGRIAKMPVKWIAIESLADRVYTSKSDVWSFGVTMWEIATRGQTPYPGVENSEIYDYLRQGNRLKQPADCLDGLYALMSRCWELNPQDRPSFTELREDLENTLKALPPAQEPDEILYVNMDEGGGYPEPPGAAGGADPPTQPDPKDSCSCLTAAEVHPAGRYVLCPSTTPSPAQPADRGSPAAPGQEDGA

ALK, construct: aa1058-end, human (from UniProt Q9UM73)
relative phosphorylation
Details	at +1	at +2	at +3	at +4	at +5	at -1	at -2	at -3	at -4	at -5
A fixed	1.39	0.79	0.525	0.758	0.82	0.976	1.09	0.931	1.23	1.06
D fixed	0.468	0.286	0.207	0.721	0.44	1.42	0.92	1.09	1.01	1.01
E fixed	1.42	0.713	0.206	0.871	0.407	0.955	1.02	1.42	1.22	0.887
F fixed	1.04	1.16	1.55	1.34	2.19	1.08	0.732	1.05	1.02	1
G fixed	0.495	0.403	0.445	0.805	0.774	0.349	1.06	1.06	1.27	1.15
H fixed	1.15	0.762	1.14	1.17	0.806	1.02	1.18	0.992	0.88	0.985
I fixed	1.59	1.17	3.08	0.994	1.43	2.22	1.08	0.683	0.817	0.925
K fixed	0.398	0.982	0.401	0.984	0.661	0.353	0.998	1.04	0.956	1.15
L fixed	1.24	1.44	1.22	0.906	1.55	1.64	0.915	0.81	0.954	0.983
M fixed	2.11	1.42	1.78	1.16	1.38	0.903	0.871	0.901	0.918	0.977
N fixed	0.472	0.837	0.496	0.855	0.697	1.31	0.952	1.2	0.882	1.09
P fixed	0.296	0.934	0.476	0.939	1.54	1.06	1.11	1.1	1.29	1.21
Q fixed	1.15	0.852	0.414	1.11	0.601	0.669	1.04	0.908	1.09	0.946
R fixed	0.528	1.46	0.667	1.31	0.879	0.346	1.19	1.19	1.31	1.21
S fixed	0.929	0.776	0.526	0.873	0.706	0.64	1.13	1.05	0.776	0.857
T fixed	0.947	0.682	0.854	0.842	0.974	0.91	1.06	0.983	0.644	0.76
V fixed	1.43	1.06	2.3	0.998	0.968	1.53	0.929	0.733	0.803	0.819
W fixed	0.939	2.26	1.72	1.36	1.18	0.613	0.72	0.865	0.927	0.963
pThr fixed	1.14	0.414	0.169	0.406	0.326	0.79	0.836	0.834	0.909	0.952
pTyr fixed	1.35	1.01	0.343	1.03	0.309	3.63	1.06	1.14	1.17	1.06

AXL, construct: aa473-end, human (from UniProt P30530)
relative phosphorylation
Details	at +1	at +2	at +3	at +4	at +5	at -1	at -2	at -3	at -4	at -5
A fixed	1.58	0.759	0.52	0.973	0.953	0.707	0.976	0.87	1.16	0.962
D fixed	0.68	0.48	0.401	0.874	1.06	0.354	0.754	0.897	0.884	0.822
E fixed	1.19	0.946	0.327	1.07	1.01	0.34	0.896	1.15	1.1	0.813
F fixed	1.12	1.43	1.61	1.03	0.877	1.51	0.6	0.911	0.948	0.965
G fixed	0.671	0.33	0.527	1.41	1.81	0.306	1.39	1.25	1.36	1.36
H fixed	1.1	0.976	1.05	1.33	0.794	1.77	1.1	1	0.905	1.08
I fixed	1.42	1.31	2.32	0.763	0.446	2.51	0.913	0.722	0.915	0.969
K fixed	0.356	0.723	0.289	0.849	0.911	0.718	1.21	1.09	1.15	1.11
L fixed	0.971	1.33	2.33	0.84	0.548	2.03	0.762	0.792	0.986	0.913
M fixed	1.09	1.13	1.55	1.02	0.69	1.05	0.639	0.84	0.891	0.977
N fixed	0.352	0.811	0.456	0.806	1.25	1.1	1.16	1.29	0.905	1.02
P fixed	0.183	0.751	0.892	1.29	2.23	0.518	1.1	1.25	1.09	1.18
Q fixed	1.02	0.801	0.818	1.18	1.14	0.595	1.23	0.965	1.08	1.11
R fixed	0.457	0.845	0.425	0.928	0.64	0.549	1.14	1.12	1.19	1.26
S fixed	1.2	0.804	0.633	0.894	1.18	0.649	1.44	1.23	0.873	0.843
T fixed	1.29	0.941	0.79	0.849	1.13	0.862	1.11	1.04	0.826	0.841
V fixed	1.72	1.2	1.45	0.744	0.6	1.27	1.05	0.785	0.862	0.827
W fixed	1.6	2.42	1.61	1.16	0.723	1.15	0.539	0.791	0.88	0.963
pThr fixed	1.2	0.933	0.308	0.609	0.743	0.426	0.736	0.827	0.7	0.706
pTyr fixed	1.74	2.15	0.402	0.659	0.818	1.08	0.692	1.06	0.883	0.7

BMPR2, construct: aa172-end, human (from UniProt Q13873)
relative phosphorylation
Details	at +1	at +2	at +3	at +4	at +5	at -1	at -2	at -3	at -4	at -5
A fixed	0.886	0.936	0.914	0.977	0.907	0.88	0.948	0.948	0.967	0.964
D fixed	0.835	1.34	1.18	1.05	1.04	2.25	1.25	1.33	1.31	1.29
E fixed	0.785	1.44	1.13	1.07	1.04	1.44	1.08	1.27	1.16	1.1
F fixed	0.959	0.852	0.953	0.96	0.947	0.755	1.09	0.989	1.13	1.06
G fixed	0.927	0.923	1.03	1.04	1.07	1.46	1.03	1.02	0.965	0.987
H fixed	1.03	0.986	0.995	1.08	1.06	0.796	1.09	1.1	1.14	1.05
I fixed	1.02	0.969	1.02	1	0.961	0.767	0.754	0.855	0.861	0.928
K fixed	1.11	0.898	0.966	1.04	1.06	0.708	1.06	0.872	0.875	0.942
L fixed	1.09	0.864	0.827	0.834	0.842	0.832	1.05	0.852	0.896	0.863
M fixed	1.06	0.913	0.906	0.917	0.874	0.841	0.97	0.881	0.901	0.892
N fixed	0.897	1.08	1	1	0.99	1.08	1	1.1	0.933	1.05
P fixed	1.23	0.981	1.05	1.07	1.15	0.724	0.825	0.86	0.905	0.928
Q fixed	0.917	0.994	0.979	0.957	0.972	0.92	1.01	1.01	0.987	1.03
R fixed	1.2	0.99	1.14	1.1	1.23	0.92	1.05	1.04	0.92	0.975
V fixed	1.26	1.03	1.04	0.972	0.979	0.781	0.732	0.918	0.911	0.906
W fixed	0.808	0.789	0.875	0.919	0.88	0.843	1.06	0.963	1.14	1.03
pThr fixed	2.07	1.7	1.39	1.4	1.12	3.29	1.35	1.22	1.22	1.27
pTyr fixed	1.48	2.01	1.17	1.27	1.05	2.54	1.64	2.3	2	1.47
